Consider 15 sequences from a protein production outcome set (Wang et al. 2014).

The nature of this data set: label from the status in PepcDB records.
In the case of “MAIEPDLGLDSTEPKLFSARLKPHRALSHNGFLILIGLVGTASFAAGLAFWLIGAWPVFGFFGLDVLALAFAFKVSFARARASEEISMTCSELRVRRTSARGEVAEWVLNPLWVRLEKIVHHDAGIERLYLVSSGRRLAIANFLGAEEKANFAKALMAALDAARRGPLYPA”, the protein production result is on record as “failed”. Consider “MAILSYISATSTTPPIPQDQSPNSRLPTKIILPNKKPEKWSTGVAPGEYGGPPTTTKLRKYWGGEKEDPITSTDLIWNRDFMDQMKKLFDDPNDSSLDPSPSKEKSSGFLSFSRVMSLDSMDVDLSKELASSSKSVVKNRLDTSKSEAKKQMSKAIVSPKWKLAPTRREQEKWDRATKAATGGSDVMFRELRRPRGDPEVQAAKDREQYFKLKNKIQVLTLGIGGVGLVSAYISYTPEIALSFGAGLLGSLAYMRMLGNSVDAMADGARGVAKGAANQPRLLVPVVLVMIFNRWNAILVPEYGFMHLELIPMLVGFFTYKIATFFQAIEEAISITTQKPESISPDTQASD”, for which the protein production entry was “not failed”. On to “MAILVDVRAAREIQDGEAGCRWERPLALGQGAFYAATGAWPLVHMPSFVAVTGPKLEPWLVRTVGVLIGAIGGTLLSAGARRRITPEVRWLALASAAGIAAVELWYAGRRRRIAPVYLLDGAGELALAAAWAALGAGRRLRGGVGTVAGGRGRHGREEDAR”, for which the protein production entry was “failed”. The same measure for “MAIPHYRLASFSSIIDDEIDKSVLVNLVGAIYDVGEFINTRPKQNIVDDLTLTFKISDNENRVLECLATKKEALDFDHNYRQYGGGVIVAVLGWWKIERYFDGTKNIRVCTACPISTVFP”: “failed”; for “MAISKALIASLLISLLVLQLVQADVENSQKKNGYAKKIGFRGGRGCVTERAGLAATGATVCLRVRTETTTSASATLASPPTVDAASAHKKKQSS”: “failed”. The value for “MAISQMKKLAMVFEKDYLDLVLKTLQQSQLVEVRDMKQLKHWQDAFNKGNVKLPQIVQYDLTHQKPLLDDEALQYLLQSQQELENGLASLSAFLPPIGKLTALRQKTPSLSFKQFEERHRQQAAQTALKMMSQKIERLEQLQSKIDQLTEYCQELEKWRSLTVLPQDLAQFHFLSARVGTIPSTANNHFYHQLKQHKGLFIEEVYHTEFEYGLVLFWQAQDTIHLQKYQFKPLLYKEQLLPSEQLRINKELLTNWLAEKDSLLKELRQSQKILAQLQVEIDYVLSQYQRQQTKKQLLGTRHLIALEGWIEADSVNQLKGLMTKTLGDMFYLDSYDVTPDDWEDVPIKLRNHRYIAPFELVTEMYALPKYQEKDPTPFLAPLYLTFFGMMVADLGYGLLLYAVTLAALVFFNLQKTSKRLVTFFNILAISVAIWGLIYGSFFGFDLPVALLSTKTDVITILVVSLLFGFVTLIFGLLLGAWQQVRMKAYATAYTSSLAWTFILLGLLLFILGKNVSGLAYLSVIGKWLALGNAFGILVVSLLKSKSLLGLGSGLYNLYGISSYLSDLVSFTRLMALGLSGASIGAAFNMIVGIFPPVTRFTVGIFIFILLHAINIFLSMLSGYVHGARLIFVEFFGKFYEGGGKAFNPLKLADNYVNVNEETDLEDN” was “failed”. Consider “MAIVKMNKFTLLAFESEKEKLLKKIQSSSEVEFINLQDEEKVEGNEVFESLSKDDLDAETTLIEENVSKTRSALDFLKEFVAEVGGLKALKAGKESLTLDELEVKVENSNWEVVYSEVKKMERELATLENEKTKLLGEIEILEPWQSFDAPLGELNNFEKVVAFLGVISSQNLENMKNEIESEFKESYIEVISNTDQDSYVFVMTMKERAEEMDEVLKNFGFSAFQTKYKEKASVLVEEFKLKIQEIEAQKSDLKGVLSNYREEKRTLELAYEYYSNILLRKEASENFLKTDKVVVIQGWVPKNDNSSLEGIIQSSVGDMYYLEFEEVKEEEVAEVPVKLHNKGPAAAFDSITEMYSLPRYDEIDPTPLLTPFYLVFFGMMVADLGYGLVLFVGSLLAMKLLNLDEAQEKFAKFFMYLSIATTIAGAVFGTAFGFELKSIGLINPSKDTNLLLILSVGFGVIQIFFGLFIKAYMLIRDKQYLYALFDVGSWIMLLIGLPMIFFDGPISLVGKVLSIVGSILIILTQGRDEETKGAQIGQGLYALYGITGYVGDLVSYTRLMALGIAGGSIAAALNLIIGMFPGIAVIIVGPLFFIAAHTFNMLLSLLGAYVHTARLQYVEYFSKFYEGGGKAFTPFRTINKFITIKRNK”, for which the protein production entry is reported as “failed”.

“MAKDTDIRSRMNRIEEIIDQLDADEVSLDEGSELYEEGQELLTEIRERLHEGQGEVIEIK”: the protein production result is listed as “not failed”.

On to “MAKFIMVVGTSSNSGKTVLVSGICRMLSNKGYKVAPFKSQNMSLNSRVSVEDGEIAVAQYTQAMAARAEPSVHFNPILLKPKGNFVSQVIVHGNPYEDKDYNEYRSKKDDFLVKIKESIDYLDKNYDYVVIEGAGSCCEINLLNDDIANLKVAEIAGADAILVSDIDRGGVFASIYGTVQLLPENWKKLLKGFVINKFRGNIDVLKDGFEKIEELTNIPVIGTIPYDETLVLPEEDSQALDGKRLEHHHHHH”, for which the protein production entry was “failed”. Turning to “MAKGVRVGLKNIHFAKILTEDENGVTYDTPVKIGNAIEASITPNTNSETLYADDGPSEVESSLGETEVEIGIDQLSTTAQALLLGHTILSDGVLEKKETDIAPYGALLFESATTGGKSKLYALYKGRFQPQEESFATKGLEHHHHHH”, the protein production entry is on record as “not failed”. Take “MAKGYWIAQVDVRDSERYKDYVSTAKPAFERFGANFLARGGSVTELEGTARARNVVIEFPSVQHAIDCYNSPEYQAAAKIRQEVADAEMMIVEGI”: the protein production result is reported as “not failed”. The same measure for “MAKIITPLSANQVKNAKPGDKLYKLSDGGGLALWVYPTGRRSWKLSFMQDGRQQTISLGRYPDFSLAEAREWREEVRRKRAHGENVVNKKVRADFAFEKVARDWFVRWSKGRSEKYAGQVMRNFERWVFPAIGNLDIRQVRTADVVGCLRVMEARGIVDTLRKTKNSLKMVFAFAVGSGMMEINPVAQIGSGVFERVKTKNMTALSPSELPRLIDFLEQRNEFAVYAGRVHIHPVTRFCIYWLLLTMTRIREAALMEWSELDGEVWRIPAERKKERRGHDVPLSRAMRWVLDQARGLNVNGRFVFESVNFQGHINKESPHVAMRRSGLDTTAHGLRSLARTYLREVLKVYNDVAEKLLAHSLGTRTQTAYNRSELWEERKDAPERWGNDVLRLADNGK”: “failed”; for “MAKIKFFALGGQDERGKNCYVLEIDNDVFIFNVGSLTPTTAVLGVKKIIPDFSWIQENQARVKGIFIGNAITENLGSLEFLFHTVGFFPIYTSSIGASIIKSKINENKLNIARDKLEIHELKPLETIEISNHSITPFKVSSSLPSSFGFALNTDNGYIVFIDDFIVLNDKNIAFENQLNQIIPKLSDNTLLLITGVGLVGRNSGFTTPKHKSLEQLNRIITPAKGRIFVACYDSNAYSVMTLAQIARMQNRPFIIYSQSFVHLFNTIVRQKLFNNTHLNTISIEEINNSTNSIVVLTSPPDKLYAKLFKIGMNEDERIRYRKSDTFIFMTPKVAGYEEIEAQILDDIARNEVSYYNLGREILSIQASDEDMKFLVSSLKPKYIIPTGGLYRDFINFTMVLKQAGAEQNQILILFNGEVLTIENKKLDSKKNELKLNPKCVDSAGLQEIGASIMFERDQMSESGVVIIIIYFDQKKSEFLNEITYSFLGVSLDVPEKDKLKTKMEELIKKQINDIKDFTTIKKRIGKEISKELKVSIKRAVMNLFTKMTSKAPLILSTIISI”: “failed”; for “MAKKNKPTECPAGEKWAVPYADFLSLLLALFIALYAISAVNKSKVEALKTEFIKIFNYAPKPEAMQPVVVIPPDSGKEEEQMASESSKPASQNTETKATIARKGEGSVLEQIDQGSILKLPSNLLFENATSDAINQDMMLYIERIAKIIQKLPKRVHINVRGFTDDTPLVKTRFKSHYELAANRAYRVMKVLIQYGVNPNQLSFSSYGSTNPIAPNDSLENRMKNNRVEIFFSTDANDLSKIHSILDNEFNPHKQQE”: “failed”. The same measure for “MAKKQLSLTRLSFPIFWDLLSKYLTVIINTAMVSHYSNFLVGAMGAGNQILDLFITIFSFLSVGCSVLIAQAIGAKDHVLARKVIHQSLFLNALLGFVCGVLILWHGEYLLYLLKIPQELLKDSEIYLHMLAICLFFDAIGIVLAAIVRVYNMAYWVMFIGFLMDIVVICGNYYVLHYTKSELFGIGLSNIFARIVAIVALFAILFYKLKIHLKIKEMIKLEKEVLKKVLNIGGFSAGENLLWIVQYTIAFAFVASLGEASLSVQTIYFQISMLIMLIGQATSIANEIIVGKLIGARYENIAYKHAWRALYFSVIASALVALLNYLCQDFTMQILGLKEELKNLMIPLFALSIFLEISRTFNIVMVNSLRASGDAKFPFFSGLVFMMGVSLPVGYVLCFHFNLGILGVWIGFCADEFLRGMVNSYRWKSKKWQGKALV”: “failed”.
